Publication PMC2716658 (Nature structural & molecular biology, 2009)

B1: WAVE1 (subunit of the recombinant human WRC) (natural protein)
chain: MPLVKRNIDPRHLCHTALPRGIKNELECVTNISLANIIRQLSSLSKYAEDIFGELFNEAHSFSFRVNSLQERVDRLSVSVTQLDPKEEELSLQDITMRKAFRSSTIQDQQLFDRKTLPIPLQETYDVCEQPPPLNILTPYRDDGKEGLKFYTNPSYFFDLWKEKMLQDTEDKRKEKRKQKQKNLDRPHEPEKVPRAPHDRRREWQKLAQGPELAEDDANLLHKHIEVANGPASHFETRPQTYVDHMDGSYSLSALPFSQMSELLTRAEERVLVRPHEPPPPPPMHGAGDAKPIPTCISSATGLIENRPQSPATGRTPVFVSPTPPPPPPPLPSALSTSSLRASMTSTPPPPVPPPPPPPATALQAPAVPPPPAPLQIAPGVLHPAPPPIAPPLVQPSPPVARAAPVCETVPVHPLPQGEVQGLPPPPPPPPLPPPGIRPSSPVTVTALAHPPSGLHPTPSTAPGPHVPLMPPSPPSQVIPASEPKRHPSTLPVISDARSVLLEAIRKGIQLRKVEEQREQEAKHERIENDVATILSRRIAVEYSDSEDDSEFDEVDWLE
B2: Sra1 (natural protein)
chain: MAAQVTLEDALSNVDLLEELPLPDQQPCIEPPPSSLLYQPNFNTNFEDRNAFVTGIARYIEQATVHSSMNEMLEEGQEYAVMLYTWRSCSRAIPQVKCNEQPNRVEIYEKTVEVLEPEVTKLMNFMYFQRNAIERFCGEVRRLCHAERRKDFVSEAYLITLGKFINMFAVLDELKNMKCSVKNDHSAYKRAAQFLRKMADPQSIQESQNLSMFLANHNKITQSLQQQLEVISGYEELLADIVNLCVDYYENRMYLTPSEKHMLLKVMGFGLYLMDGSVSNIYKLDAKKRINLSKIDKYFKQLQVVPLFGDMQIELARYIKTSAHYEENKSRWTCTSSGSSPQYNICEQMIQIREDHMRFISELARYSNSEVVTGSGRQEAQKTDAEYRKLFDLALQGLQLLSQWSAHVMEVYSWKLVHPTDKYSNKDCPDSAEEYERATRYNYTSEEKFALVEVIAMIKGLQVLMGRMESVFNHAIRHTVYAALQDFSQVTLREPLRQAIKKKKNVIQSVLQAIRKTVCDWETGHEPFNDPALRGEKDPKSGFDIKVPRRAVGPSSTQLYMVRTMLESLIADKSGSKKTLRSSLEGPTILDIEKFHRESFFYTHLINFSETLQQCCDLSQLWFREFFLELTMGRRIQFPIEMSMPWILTDHILETKEASMMEYVLYSLDLYNDSAHYALTRFNKQFLYDEIEAEVNLCFDQFVYKLADQIFAYYKVMAGSLLLDKRLRSECKNQGATIHLPPSNRYETLLKQRHVQLLGRSIDLNRLITQRVSAAMYKSLELAIGRFESEDLTSIVELDGLLEINRMTHKLLSRYLTLDGFDAMFREANHNVSAPYGRITLHVFWELNYDFLPNYCYNGSTNRFVRTVLPFSQEFQRDKQPNAQPQYLHGSKALNLAYSSIYGSYRNFVGPPHFQVICRLLGYQGIAVVMEELLKVVKSLLQGTILQYVKTLMEVMPKICRLPRHEYGSPGILEFFHHQLKDIVEYAELKTVCFQNLREVGNAILFCLLIEQSLSLEEVCDLLHAAPFQNILPRVHVKEGERLDAKMKRLESKYAPLHLVPLIERLGTPQQIAIAREGDLLTKERLCCGLSMFEVILTRIRSFLDDPIWRGPLPSNGVMHVDECVEFHRLWSAMQFVYCIPVGTHEFTVEQCFGDGLHWAGCMIIVLLGQQRRFAVLDFCYHLLKVQKHDGKDEIIKNVPLKKMVERIRKFQILNDEIITILDKYLKSGDGEGTPVEHVRCFQPPIHQSLASS

Tests used:
[1] = target: B2; assay: co-expression and purification of the complex
[2] = target: B1; assay: AUC

Row | Binder | binding result [1] | stoichiometry N [2]
1 | B1 | binds | 
2 | Nap1 (natural protein) MSRSVLQPSQQKLAEKLTILNDRGVGMLTRLYNIKKACGDPKAKPSYLIDKNLESAVKFIVRKFPAVETRNNNQQLAQLQKEKSEILKNLALYYFTFVDVMEFKDHVCELLNTIDVCQVFFDITVNFDLTKNYLDLIITYTTLMILLSRIEERKAIIGLYNYAHEMTHGASDREYPRLGQMIVDYENPLKKMMEEFVPHSKSLSDALISLQMVYPRRNLSADQWRNAQLLSLISAPSTMLNPAQSDTMPCEYLSLDAMEKWIIFGFILCHGILNTDATALNLWKLALQSSSCLSLFRDEVFHIHKAAEDLFVNIRGYNKRINDIRECKEAAVSHAGSMHRERRKFLRSALKELATVLSDQPGLLGPKALFVFMALSFARDEIIWLLRHADNMPKKSADDFIDKHIAELIFYMEELRAHVRKYGPVMQRYYVQYLSGFDAVVLNELVQNLSVCPEDESIIMSSFVNTMTSLSVKQVEDGEVFDFRGMRLDWFRLQAYTSVSKASLGLADHRELGKMMNTIIFHTKMVDSLVEMLVETSDLSIFCFYSRAFEKMFQQCLELPSQSRYSIAFPLLCTHFMSCTHELCPEERHHIGDRSLSLCNMFLDEMAKQARNLITDICTEQCTLSDQLLPKHCAKTISQAVNKKSKKQTGKKGEPEREKPGVESMRKNRLVVTNLDKLHTALSELCFSINYVPNMVVWEHTFTPREYLTSHLEIRFTKSIVGMTMYNQATQEIAKPSELLTSVRAYMTVLQSIENYVQIDITRVFNNVLLQQTQHLDSHGEPTITSLYTNWYLETLLRQVSNGHIAYFPAMKAFVNLPTENELTFNAEEYSDISEMRSLSELLGPYGMKFLSESLMWHISSQVAELKKLVVENVDVLTQMRTSFDKPDQMAALFKRLSSVDSVLKRMTIIGVILSFRSLAQEALRDVLSYHIPFLVSSIEDFKDHIPRETDMKVAMNVYELSSAAGLPCEIDPALVVALSSQKSENISPEEEYKIACLLMVFVAVSLPTLASNVMSQYSPAIEGHCNNIHCLAKAINQIAAALFTIHKGSIEDRLKEFLALASSSLLKIGQETDKTTTRNRESVYLLLDMIVQESPFLTMDLLESCFPYVLLRNAYHAVYKQSVTSSA |  | 1
3 | Abi2 (subunit of the recombinant human WRC) (natural protein) MAELQMLLEEEIPGGRRALFDSYTNLERVADYCENNYIQSADKQRALEETKAYTTQSLASVAYLINTLANNVLQMLDIQASQLRRMESSINHISQTVDIHKEKVARREIGILTTNKNTSRTHKIIAPANLERPVRYIRKPIDYTILDDIGHGVKWLLRFKVSTQNMKMGGLPRTTPPTQKPPSPPMSGKGTLGRHSPYRTLEPVRPPVVPNDYVPSPTRNMAPSQQSPVRTASVNQRNRTYSSSGSSGGSHPSSRSSSRENSGSGSVGVPIAVPTPSPPSVFPAPAGSAGTPPLPATSASAPAPLVPATVPSSTAPNAAAGGAPNLADGFTSPTPPVVSSTPPTGHPVQFYSMNRPASRHTPPTIGGSLPYRRPPSITSQTSLQNQMNGGPFYSQNPVSDTPPPPPPVEEPVFDESPPPPPPPEDYEEEEAAVVEYSDPYAEEDPPWAPRSYLEKVVAIYDYTKDKEDELSFQEGAIIYVIKKNDDGWYEGVMNGVTGLFPGNYVESIMHYSE |  | 1
4 | B2 |  | 1
5 | HSPC300 (natural protein) MAGQEDPVQREIHQDWANREYIEIITSSIKKIADFLNSFDMSCRSRLATLNEKLTALERRIEYIEARVTKGETLT |  | 1
